Results on three molecules are retold here after publication PMC6677837, “A Novel Cell-Penetrating Antibody Fragment Inhibits the DNA Repair Protein RAD51” (Scientific Reports, 2019).

In general, koff refers to the rate constant with which the complex falls apart. As usually defined, the Kd is the free concentration of one partner at which half of the binding sites on the other are occupied at equilibrium, for simple one-to-one binding. As usually defined, the kon is a measure of how fast the partners come together.

The target in data set [1] is T1, Recombinant human RAD51 (residues 21-339, C-terminal Leu-Glu-His6) (human, UniProt Q06609 21-339).
T1 chain: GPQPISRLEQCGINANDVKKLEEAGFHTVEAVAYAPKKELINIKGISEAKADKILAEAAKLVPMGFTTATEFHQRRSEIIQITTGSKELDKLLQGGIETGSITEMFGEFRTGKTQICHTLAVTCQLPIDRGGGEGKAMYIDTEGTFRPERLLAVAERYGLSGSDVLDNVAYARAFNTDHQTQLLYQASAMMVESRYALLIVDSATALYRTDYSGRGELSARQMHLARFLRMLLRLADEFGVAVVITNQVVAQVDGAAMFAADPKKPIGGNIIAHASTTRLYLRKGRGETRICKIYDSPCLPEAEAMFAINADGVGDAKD
The data set is described as follows: BLI.

For data set [2], the target named is T2, Recombinant human RAD51 (residues 21-339, C-terminal Leu-Glu-His6) (Homo sapiens, UniProt Q06609).
T2 construct: RAD51, Homo sapiens, residues 21-339, inserted between the NcoI and XhoI sites of pET28a; Cloning at the NcoI site may add a start methionine; also called purified RAD51; plasmid-expressed RAD51; source: E. coli Rosetta(DE3), pET28a-RAD51, purified (ammonium sulfate, DE52 anion exchange, HiTrap Ni-chelating column); also in E. coli whole cell lysate
The data set is described as follows: BLI; Fab (about 0.5 nm) immobilised on Protein L biosensors, range of RAD51 concentrations in solution; 25 °C, PBS pH 7.4 with 0.1% Tween 20 and 10 mg/mL BSA; global fit, 1:1 Langmuir model, reference well subtracted. The conditions noted are these: both partners purified. In general terms: Biolayer interferometry detects binding as a change in optical thickness at a sensor tip.

In data set [3] the target is T2, Recombinant human RAD51 (residues …). The data set is described as follows: cell-based or functional assay.
Data set [4] addresses RAD51 (Homo sapiens, UniProt Q06609 21-339). The data set can be described thus: BLI; no Fab-F2; 1:1 Langmuir global fit; BLI on streptavidin biosensors; 0.5 uM RAD51 for the inhibition assay; buffer, salt, pH and temperature not given in the material (RAD51 dialyzed into PBS). The settings on record: protein: recombinant; label: 5'-biotin; single strand.

B1: Fab-F2-iPTD (Fab, V domains shown)
VH: EVQLVESGGGLVQPGGSLRLSCAASGFTFSSYGMHWVRQAPGKGLEWVAVISYDGSNKYYADSVKGRFTISADTSKNTAYLQMNSLRAEDTAVYYCARTYSYASRGWYDYWGQGTLVTVSS
VL: DIQMTQSPSSLSASVGDRVTITCRASQGISNYLAWYQQKPGKAPKLLIYAASSLQSGVPSRFSGSRSGTDFTLTISSLQPEDFATYYCQQGTYLPLTFGQGTKVEIK
notes: as the heavy chain of m2; as the light chain of m2; also called cell-penetrating Fab-F2-iPTD; source: E. coli, pCW-Fab-F2-iPTD, purified
For the molecule B1, in data set [1], the koff was determined as 0.000658 s⁻¹. For the same molecule, in data set [2], the Kd was found to be 18.2 nM; the “koff, fold lower than for Fab-F2” value was around 2 fold; the “kon, fold lower than for Fab-F2” value was around 2 fold.

B2: Fab-F2 (Fab, V domains shown)
VH: B1 VH
VL: B1 VL
notes: Human IgG1 synthetic Fab from phage Library S (randomised CDRL3 and CDRH3, canonical other CDRs); In the Western blots the Fab was labelled with IRDye 800CW; also called IRDye 800CW-labeled Fab-F2; source: also in small-scale E. coli lysate
Regarding B2, in data set [3], the “inhibition of RAD51 (500 nM, pre-incubated with various concentrations of Fab-F2) binding to immobilised 5'-biotinylated oligo(dT)36 ssDNA, by BLI; IC50” value is below 125 nM. In addition, in data set [2], the dissociation constant (Kd) is 8.1 ± 0.21 nM, the koff is 0.000156 s⁻¹ and the kon worked out at 19300 M⁻¹ s⁻¹.

B3: oligo(dT)36 (ssDNA)
DNA: TTTTTTTTTTTTTTTTTTTTTTTTTTTTTTTTTTTT
Take B3: the Kd in data set [4] turned out to be 27.6 ± 4.75 nM.
